# Results reported in patent publication US20190161555A1.
# What was measured:
# [1] = target: human/mouse 5T4 chimera aa173-420 (human; mouse) (UniProt Q13641); experiment: flow cytometry, cells with 5T4 chimera; % positive cells over that of the best clone
# [2] = target: Chimeric OX40 construct 1548 (human; mouse) (UniProt P43489); experiment: flow cytometry, 293-F cells transfected with the construct
# [3] = target: Chimeric OX40 construct 1547 (human; mouse) (UniProt P43489); experiment: as above
# Chimeric OX40 construct 1547 (human; mouse), sequence (P43489 other isoform, or with tags, fused parts or gaps mutant, form in doubt): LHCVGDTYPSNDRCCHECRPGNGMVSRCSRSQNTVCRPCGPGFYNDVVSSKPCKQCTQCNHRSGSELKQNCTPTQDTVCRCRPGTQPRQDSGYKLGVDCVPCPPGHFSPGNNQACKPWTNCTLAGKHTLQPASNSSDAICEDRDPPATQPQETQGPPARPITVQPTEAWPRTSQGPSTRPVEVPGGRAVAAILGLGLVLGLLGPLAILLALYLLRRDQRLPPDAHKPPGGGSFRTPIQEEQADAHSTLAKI
# [4] = target: Chimeric OX40 construct 1545 (human; mouse) (UniProt P43489); experiment: as above
# Chimeric OX40 construct 1545 (human; mouse), sequence (P43489 other isoform, or with tags, fused parts or gaps mutant, form in doubt): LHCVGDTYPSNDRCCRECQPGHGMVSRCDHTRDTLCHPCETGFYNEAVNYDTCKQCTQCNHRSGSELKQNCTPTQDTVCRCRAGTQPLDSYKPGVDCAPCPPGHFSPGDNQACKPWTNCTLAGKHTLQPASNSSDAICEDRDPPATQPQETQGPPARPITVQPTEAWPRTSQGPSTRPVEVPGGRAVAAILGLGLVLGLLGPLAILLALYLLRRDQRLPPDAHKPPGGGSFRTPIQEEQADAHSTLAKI
# [5] = target: Chimeric OX40 construct 1549 (human; mouse) (UniProt P47741); experiment: as above
# [6] = target: Chimeric OX40 construct 1546 (human; mouse) (UniProt P43489); experiment: as above
# Chimeric OX40 construct 1546 (human; mouse), sequence (P43489 other isoform, or with tags, fused parts or gaps mutant, form in doubt): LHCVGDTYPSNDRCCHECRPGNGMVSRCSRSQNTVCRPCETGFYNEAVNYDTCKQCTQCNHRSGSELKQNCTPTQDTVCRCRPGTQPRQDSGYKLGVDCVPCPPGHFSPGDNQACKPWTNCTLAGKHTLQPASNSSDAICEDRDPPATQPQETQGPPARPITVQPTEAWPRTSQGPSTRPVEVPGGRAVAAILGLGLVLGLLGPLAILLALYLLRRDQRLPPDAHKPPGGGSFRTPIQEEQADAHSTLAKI
# [7] = target: Chimeric OX40 construct 1544 (human; mouse) (UniProt P47741); experiment: as above
# Chimeric OX40 construct 1544 (human; mouse), sequence (P43489 other isoform, or with tags, fused parts or gaps mutant, form in doubt): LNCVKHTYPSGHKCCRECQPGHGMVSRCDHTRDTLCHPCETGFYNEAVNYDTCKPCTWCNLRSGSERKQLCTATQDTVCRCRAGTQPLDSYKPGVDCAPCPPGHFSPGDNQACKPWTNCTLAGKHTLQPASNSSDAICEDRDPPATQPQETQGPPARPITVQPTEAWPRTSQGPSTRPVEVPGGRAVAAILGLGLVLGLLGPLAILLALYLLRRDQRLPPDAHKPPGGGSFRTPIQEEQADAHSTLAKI
# Chimeric OX40 construct 1548 (human; mouse), sequence (P43489 other isoform, or with tags, fused parts or gaps mutant, form in doubt): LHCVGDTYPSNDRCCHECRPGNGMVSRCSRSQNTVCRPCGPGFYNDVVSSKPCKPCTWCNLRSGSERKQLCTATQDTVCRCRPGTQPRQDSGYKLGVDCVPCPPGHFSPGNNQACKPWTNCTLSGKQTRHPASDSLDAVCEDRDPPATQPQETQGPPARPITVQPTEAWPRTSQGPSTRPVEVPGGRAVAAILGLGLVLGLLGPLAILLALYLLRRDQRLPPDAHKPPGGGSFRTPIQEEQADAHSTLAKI
# human/mouse 5T4 chimera aa173-420 (human; mouse), sequence (Q13641 other isoform, or with tags, fused parts or gaps mutant limits assumed, form in doubt): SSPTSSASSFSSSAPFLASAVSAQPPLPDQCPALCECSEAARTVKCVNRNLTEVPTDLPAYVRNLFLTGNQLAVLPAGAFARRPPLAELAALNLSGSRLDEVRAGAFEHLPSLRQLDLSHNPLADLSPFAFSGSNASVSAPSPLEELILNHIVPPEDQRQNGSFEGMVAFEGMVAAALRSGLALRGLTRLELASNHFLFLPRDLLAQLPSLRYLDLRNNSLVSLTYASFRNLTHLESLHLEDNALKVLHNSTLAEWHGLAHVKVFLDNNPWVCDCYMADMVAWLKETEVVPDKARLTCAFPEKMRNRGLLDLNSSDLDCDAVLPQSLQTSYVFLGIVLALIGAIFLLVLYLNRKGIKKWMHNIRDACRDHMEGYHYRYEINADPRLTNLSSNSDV
normalized % positive cells [1],relative MFI (fold over isotype control) [2],relative MFI (fold over isotype control) [3],relative MFI (fold over isotype control) [4],relative MFI (fold over isotype control) [5],relative MFI (fold over isotype control) [6],relative MFI (fold over isotype control) [7],Binder
-0.01,–,–,–,–,–,–,"1212/1213 (antibody, IgG1, V domains shown) VH: EVQLLESGGGLVQPGGSLRLSCAASGFTFSSYAMSWVRQAPGKGLEWVSYISSYGGYTSYADSVKGRFTISRDNSKNTLYLQMNSLRAEDTAVYYCARYHSGVLDYWGQGTLVTVSS VL: DIQMTQSPSSLSASVGDRVTITCRASQSISSYLNWYQQKPGKAPKLLIYAASSLQSGVPSRFSGSGSGTDFTLTISSLQPEDFATYYCQQYYYHYLLTFGQGTKLEIK"
–,12.7,1,1.3,8.5,0.9,1.1,"1526/1527 (antibody, V domains shown) VH: EVQLLESGGGLVQPGGSLRLSCAASGFTFSGYSMYWVRQAPGKGLEWVSGIGYSGYGTYYADSVKGRFTISRDNSKNTLYLQMNSLRAEDTAVYYCARYYFHDYAAYSLDYWGQGTLVTVSS VL: DIQMTQSPSSLSASVGDRVTITCRASQSISSYLNWYQQKPGKAPKLLIYAASSLQSGVPSRFSGSGSGTDFTLTISSLQPEDFATYYCQQYGSDSLLTFGQGTKLEIK"
–,15.8,15.2,1,11.3,0.8,14.2,"1166/1167 (antibody, V domains shown) VH: EVQLLESGGGLVQPGGSLRLSCAASGFTFGGYYMSWVRQAPGKGLEWVSAISGSGGSTYYADSVKGRFTISRDNSKNTLYLQMNSLRAEDTAVYYCARYDYASMDYWGQGTLVTVSS VL: DIQMTQSPSSLSASVGDRVTITCRASQSISSYLNWYQQKPGKAPKLLIYAASSLQSGVPSRFSGSGSGTDFTLTISSLQPEDFATYYCQQYYWYGLSTFGQGTKLEIK"

# Second part, the binder before the results:
Binder,normalized % positive cells [1],relative MFI (fold over isotype control) [2],relative MFI (fold over isotype control) [3],relative MFI (fold over isotype control) [4],relative MFI (fold over isotype control) [5],relative MFI (fold over isotype control) [6],relative MFI (fold over isotype control) [7]
"1524/1525 (antibody, V domains shown) VH: EVQLLESGGGLVQPGGSLRLSCAASGFTFGSYYMGWVRQAPGKGLEWVSSIGSYYGYTYYADSVKGRFTISRDNSKNTLYLQMNSLRAEDTAVYYCARHDYGALDYWGQGTLVTVSS VL: DIQMTQSPSSLSASVGDRVTITCRASQSISSYLNWYQQKPGKAPKLLIYAASSLQSGVPSRFSGSGSGTDFTLTISSLQPEDFATYYCQQYGPSGLFTFGQGTKLEIK",–,15.4,1,0.9,11.2,0.9,1.5
"1206/1207 (antibody, V domains shown) VH: EVQLLESGGGLVQPGGSLRLSCAASGFTFSGSSMSWVRQAPGKGLEWVSSIYYSGSGTYYADSVKGRFTISRDNSKNTLYLQMNSLRAEDTAVYYCARYGRNVHPYNLDYWGQGTLVTVSS VL: DIQMTQSPSSLSASVGDRVTITCRASQSISSYLNWYQQKPGKAPKLLIYAASSLQSGVPSRFSGSGSGTDFTLTISSLQPEDFATYYCQQGYYYLPTFGQGTKLEIK",0.3,–,–,–,–,–,–
"1514/1515 (antibody, V domains shown) VH: EVQLLESGGGLVQPGGSLRLSCAASGFTFGYYYMSWVRQAPGKGLEWVSGISSYGSYTYYADSVKGRFTISRDNSKNTLYLQMNSLRAEDTAVYYCARSGYSNWANSFDYWGQGTLVTVSS VL: DIQMTQSPSSLSASVGDRVTITCRASQSISSYLNWYQQKPGKAPKLLIYAASSLQSGVPSRFSGSGSGTDFTLTISSLQPEDFATYYCQQGDYTLFTFGQGTKLEIK",–,17.2,1.1,1.2,10.6,0.9,11.6
